Assay results reported in publication PMC12728182, “Hierarchical folding-upon-binding of an intrinsically disordered protein” (Nature Communications, 2025).

Tests used:
Conditions in all cases: both partners purified
[1] = biological target: T1, Human Rac1 (residues 1-177), GMPPNP-loaded (human, UniProt P63000 1-177); assay: ITC; POSH_(315-380) (1000 uM) titrated into GMPPNP-loaded Rac1 (125 uM), 35 °C, 50 mM HEPES pH 6.9, 150 mM NaCl, 5 mM MgCl2, 2 mM TCEP; model 'One set of sites'; duplicates
[2] = biological target: T1, Human Rac1 (residues 1-177), …; assay: ITC; Kd at 25 °C not measured directly (binding enthalpy close to 0); estimated through linear extrapolation of the Gibbs free energy measured by ITC at 5, 10, 15 and 35 °C; same buffer
[3] = biological target: T1, Human Rac1 (residues 1-177), …; assay: NMR 15N CEST; 15N POSH_(315-380) (500 uM) with 20% molar ratio of Rac1 (100 uM), 950 MHz, four B1 fields (5.2, 10.3, 20.5, 68.6 Hz); global fit with a linear 4-site exchange model (ChemEx), total bound population fixed from Kd = 24 uM at 25 °C

B1: POSH_(315-380), shorter construct of human POSH comprising MRE1 and MRE2 (domain or fragment)
chain: GHMWSQASQNRHSMEISPPVLISSSNPTAAARISELSGLSCSAPSQVHISTTGLIVTPPPSSPVTTGPSF
For B1, the Kd [1] was 21 to 46 µM, the Kd [2] was 24 µM and the “kAB (intermediate A to B, folding of the MRE1 helix on Rac1, 4-site model)” value [3] was 72 s⁻¹. For the same binder, the “kBC (intermediate B to final complex C, folding of MRE2 on Rac1, 4-site model)” value [3] was 89 s⁻¹.
